Source: PMC314469, “Protein Interaction Networks by Proteome Peptide Scanning” (PLoS Biology, 2004)

Key:
Assay in all cases: SPOT array
[1] = molecular target: T1, Boi1 SH3 (BOI1_YEAST), P38041
T1 chain: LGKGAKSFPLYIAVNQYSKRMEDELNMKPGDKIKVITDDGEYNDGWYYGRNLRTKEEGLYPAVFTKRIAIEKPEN

[2] = molecular target: T2, Boi2 SH3 (BOI2_YEAST), P39969
T2 chain: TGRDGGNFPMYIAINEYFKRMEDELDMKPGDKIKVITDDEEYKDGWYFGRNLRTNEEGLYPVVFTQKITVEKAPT

[3] = molecular target: T3, Myo5 SH3 (MYO5_YEAST), Q04439
T3 chain: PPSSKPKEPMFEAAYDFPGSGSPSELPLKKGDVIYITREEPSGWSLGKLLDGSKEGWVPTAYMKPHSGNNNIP

[4] = molecular target: T4, Rvs167 SH3 (RV167_YEAST), P39743
T4 chain: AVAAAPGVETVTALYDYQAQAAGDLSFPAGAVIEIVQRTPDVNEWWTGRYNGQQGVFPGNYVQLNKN

[5] = molecular target: Sho1 SH3 (SHO1_YEAST), P40073
Sho1 SH3 (SHO1_YEAST), P40073, sequence (P40073 295-366): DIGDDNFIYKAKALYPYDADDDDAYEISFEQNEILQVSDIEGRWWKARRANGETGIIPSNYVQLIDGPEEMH

[6] = molecular target: T5, Yfr024 SH3 (LSB3_YEAST), P43603
T5 chain: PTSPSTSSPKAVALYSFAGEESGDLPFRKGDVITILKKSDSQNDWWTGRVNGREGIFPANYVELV

[7] = molecular target: T6, Yhr016c SH3 (YSC84_YEAST), P32793
T6 chain: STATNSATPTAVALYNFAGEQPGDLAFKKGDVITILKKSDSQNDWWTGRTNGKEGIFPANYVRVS

| Binder | normalised SPOT signal, Boehringer light units (BLU); mean over the file's lines of this peptide [1] | normalised SPOT signal, Boehringer light units (BLU); mean over the file's lines of this peptide [2] | normalised SPOT signal, Boehringer light units (BLU); mean over the file's lines of this peptide [3] | normalised SPOT signal, Boehringer light units (BLU); mean over the file's lines of this peptide [4] | normalised SPOT signal, Boehringer light units (BLU); mean over the file's lines of this peptide [5] | normalised SPOT signal, Boehringer light units (BLU); mean over the file's lines of this peptide [6] | normalised SPOT signal, Boehringer light units (BLU); mean over the file's lines of this peptide [7] |
| --- | --- | --- | --- | --- | --- | --- | --- |
| VKATKWPPKLPEIQ [YMR239C 193-206] | 170 | 0.8 | 57.4 | 9.9 | 25.7 | 43.6 | 49.9 |
| VPIDKKSPFYPGLD [YCL055W 187-200] | 152 | 31.1 | 150 | 59.1 | 20.8 | 32.1 | 20.7 |
| VNTPRSVPNSPNDG [YGL209W 201-214] | 28.6 | 28 | 65 | 59.3 | 47.4 | 662 | 208 |
| VHVLKYAPDEPNSL [YDR301W 1194-1207] | 104 | 29.5 | 191 | 34.4 | 19.6 | 3.3 | 25.5 |
| VNIGRRSPYLPLQP [YLR212C 354-367] | 1040 | 19.1 | 476 | 75.4 | 94 | 284 | 19.5 |
| VQIKRADPHFPHDE [YMR140W 298-311] | 33.5 | 20 | 132 | 63.1 | 30.6 | 44.1 | 41.5 |
| VLKIKPLPYKPRGR [YER093C 584-597] | 1590 | 34.8 | 647 | 25 | 3410 | 426 | 27.3 |
| VSKAKLQPAKPQFT [YAR007C 257-270] | 657 | 21.4 | 252 | 28.5 | 61.2 | 96.3 | 50.6 |
| VLTVKMSPSLPDEI [YCR030C 726-739] | 173 | 28.2 | 230 | 4.4 | 49.5 | 444 | 20.6 |
| VLGPKYDPKSPEEH [YNL163C 601-614] | 28.8 | 1.9 | 157 | 12.7 | 45.5 | -0 | 22.7 |
| VIIGKTTPISPDEE [YOR151C 910-923] | 0 | 19.8 | 54 | 32.9 | 36.1 | 0 | 6.3 |
| VKKEKKPPKIPKKV [YPR104C 435-448] | 1300 | 8.9 | 534 | 71.6 | 71.6 | 782 | 32.9 |
| VKRPRLNPFLPRDE [YGL097W 70-83] | 135000 | 2400 | 1190 | 4070 | 119 | 2420 | 348 |
| VRSKRLFPVRPMAT [YAL040C 535-548] | 362 | 0 | 504 | 309 | 244 | 2610 | 236 |
| VHFYKSLPQGPAPA [YDR377W 34-47] | 49.8 | 44.6 | 510 | 25.6 | 5350 | 90.7 | 21.8 |
| VLFMKGTPEFPKSG [YPL059W 48-61] | 151 | 108 | 213 | 267 | 51.5 | 666 | 128 |
